Measurements taken from paper doi:10.1101/554881, “LRRK2-mediated phosphorylation of HDAC6 regulates HDAC6-cytoplasmic dynein interaction and aggresome formation” (bioRxiv, 2019).

Molecular target: T1, GST-tagged human LRRK2 wild type (amino acids 970-2527) (human, UniProt Q5S007 970-2527)
T1 construct: LRRK2, human, amino acids 970-2527; also called GST-LRRK2; GST-LRRK2 (aa 970-2527); source: bought: Invitrogen
Assay: pull-down; GST-LRRK2 (aa 970-2527; 1 µg) or GST (1 µg) incubated with His-HDAC6 (1 µg) in 250 µl RB100 buffer (25 mM HEPES pH 7.5, 100 mM KOAc, 10 mM MgCl2, 1 mM DTT, 0.05% Triton X-100, 10% glycerol) for 1 h at 4°C; captured on glutathione sepharose; immunoblot
Details: both partners purified

T1 sequence (Q5S007 970-2527): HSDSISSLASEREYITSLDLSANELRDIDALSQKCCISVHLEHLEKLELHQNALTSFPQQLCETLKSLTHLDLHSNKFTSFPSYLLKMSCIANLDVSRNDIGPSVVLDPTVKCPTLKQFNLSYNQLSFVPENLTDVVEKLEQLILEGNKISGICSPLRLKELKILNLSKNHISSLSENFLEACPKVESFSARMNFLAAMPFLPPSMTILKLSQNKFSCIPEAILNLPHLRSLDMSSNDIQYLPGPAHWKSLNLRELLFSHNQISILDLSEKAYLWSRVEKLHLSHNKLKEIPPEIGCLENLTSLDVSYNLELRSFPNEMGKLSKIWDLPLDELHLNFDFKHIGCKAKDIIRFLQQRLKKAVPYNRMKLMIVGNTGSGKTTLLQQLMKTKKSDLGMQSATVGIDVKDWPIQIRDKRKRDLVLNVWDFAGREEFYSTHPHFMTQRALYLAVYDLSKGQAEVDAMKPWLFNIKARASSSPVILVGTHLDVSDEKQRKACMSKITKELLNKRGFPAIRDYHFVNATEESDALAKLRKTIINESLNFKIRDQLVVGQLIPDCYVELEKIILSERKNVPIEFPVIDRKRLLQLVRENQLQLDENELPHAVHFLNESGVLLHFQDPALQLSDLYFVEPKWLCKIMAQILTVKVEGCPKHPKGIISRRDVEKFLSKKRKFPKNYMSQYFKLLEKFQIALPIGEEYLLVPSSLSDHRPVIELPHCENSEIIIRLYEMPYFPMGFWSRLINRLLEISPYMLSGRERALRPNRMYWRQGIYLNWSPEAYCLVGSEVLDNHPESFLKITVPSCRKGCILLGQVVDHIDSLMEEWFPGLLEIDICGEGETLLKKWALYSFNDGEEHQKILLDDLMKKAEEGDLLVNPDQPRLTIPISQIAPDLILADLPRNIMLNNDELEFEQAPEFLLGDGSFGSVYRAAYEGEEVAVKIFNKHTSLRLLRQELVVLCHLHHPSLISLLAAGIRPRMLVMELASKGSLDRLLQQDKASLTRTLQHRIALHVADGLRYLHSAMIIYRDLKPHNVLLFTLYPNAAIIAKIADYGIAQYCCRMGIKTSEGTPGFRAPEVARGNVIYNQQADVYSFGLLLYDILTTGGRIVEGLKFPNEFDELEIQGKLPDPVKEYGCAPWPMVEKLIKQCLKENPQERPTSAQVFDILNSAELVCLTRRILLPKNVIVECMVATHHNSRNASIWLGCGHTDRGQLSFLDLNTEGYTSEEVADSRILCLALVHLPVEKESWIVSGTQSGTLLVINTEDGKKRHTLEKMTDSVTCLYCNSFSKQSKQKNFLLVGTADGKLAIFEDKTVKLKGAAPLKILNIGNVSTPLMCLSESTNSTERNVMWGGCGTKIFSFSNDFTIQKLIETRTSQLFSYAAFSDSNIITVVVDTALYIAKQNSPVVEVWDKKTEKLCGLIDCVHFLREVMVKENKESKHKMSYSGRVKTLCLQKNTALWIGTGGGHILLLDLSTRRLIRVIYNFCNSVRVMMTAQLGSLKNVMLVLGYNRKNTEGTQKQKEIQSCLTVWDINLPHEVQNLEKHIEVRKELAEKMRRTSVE

B1: recombinant His-tagged human HDAC6 protein (enzyme, UniProt Q9UBN7 1-1215, looked up)
chain: MTSTGQDSTTTRQRRSRQNPQSPPQDSSVTSKRNIKKGAVPRSIPNLAEVKKKGKMKKLGQAMEEDLIVGLQGMDLNLEAEALAGTGLVLDEQLNEFHCLWDDSFPEGPERLHAIKEQLIQEGLLDRCVSFQARFAEKEELMLVHSLEYIDLMETTQYMNEGELRVLADTYDSVYLHPNSYSCACLASGSVLRLVDAVLGAEIRNGMAIIRPPGHHAQHSLMDGYCMFNHVAVAARYAQQKHRIRRVLIVDWDVHHGQGTQFTFDQDPSVLYFSIHRYEQGRFWPHLKASNWSTTGFGQGQGYTINVPWNQVGMRDADYIAAFLHVLLPVALEFQPQLVLVAAGFDALQGDPKGEMAATPAGFAQLTHLLMGLAGGKLILSLEGGYNLRALAEGVSASLHTLLGDPCPMLESPGAPCRSAQASVSCALEALEPFWEVLVRSTETVERDNMEEDNVEESEEEGPWEPPVLPILTWPVLQSRTGLVYDQNMMNHCNLWDSHHPEVPQRILRIMCRLEELGLAGRCLTLTPRPATEAELLTCHSAEYVGHLRATEKMKTRELHRESSNFDSIYICPSTFACAQLATGAACRLVEAVLSGEVLNGAAVVRPPGHHAEQDAACGFCFFNSVAVAARHAQTISGHALRILIVDWDVHHGNGTQHMFEDDPSVLYVSLHRYDHGTFFPMGDEGASSQIGRAAGTGFTVNVAWNGPRMGDADYLAAWHRLVLPIAYEFNPELVLVSAGFDAARGDPLGGCQVSPEGYAHLTHLLMGLASGRIILILEGGYNLTSISESMAACTRSLLGDPPPLLTLPRPPLSGALASITETIQVHRRYWRSLRVMKVEDREGPSSSKLVTKKAPQPAKPRLAERMTTREKKVLEAGMGKVTSASFGEESTPGQTNSETAVVALTQDQPSEAATGGATLAQTISEAAIGGAMLGQTTSEEAVGGATPDQTTSEETVGGAILDQTTSEDAVGGATLGQTTSEEAVGGATLAQTTSEAAMEGATLDQTTSEEAPGGTELIQTPLASSTDHQTPPTSPVQGTTPQISPSTLIGSLRTLELGSESQGASESQAPGEENLLGEAAGGQDMADSMLMQGSRGLTDQAIFYAVTPLPWCPHLVAVCPIPAAGLDVTQPCGDCGTIQENWVCLSCYQVYCGRYINGHMLQHHGNSGHPLVLSYIDLSAWCYYCQAYVHHQALLDVKNIAHQNKFGEDMPHPH
notes: Histone deacetylase 6 (HDAC6), human, full length; also called His-HDAC6; full-length human His-HDAC6; source: bought: EMD Millipore
  binding result: binds
